Test results as given in patent EP2112167A2 (Genentech, Inc., dated 2009).

Experiments:
EGFR = target: T1, EGFR (UniProt P00533 25-645, limits assumed); assay: not described (cited: Fendly et al.)
T1 construct: also called ErbB1; epidermal growth factor receptor

ErbB3 = target: T2, ErbB3 (human, UniProt P21860 20-1342); assay: not described
T2 construct: whole, on cells; In the co-immunoprecipitation it is the endogenous receptor of the cells (lysates); also called HER3

ErbB4 = target: T3, ErbB4 (UniProt Q15303 26-649, limits assumed); assay: not described
T3 construct: also called HER4
T3 sequence (looked up): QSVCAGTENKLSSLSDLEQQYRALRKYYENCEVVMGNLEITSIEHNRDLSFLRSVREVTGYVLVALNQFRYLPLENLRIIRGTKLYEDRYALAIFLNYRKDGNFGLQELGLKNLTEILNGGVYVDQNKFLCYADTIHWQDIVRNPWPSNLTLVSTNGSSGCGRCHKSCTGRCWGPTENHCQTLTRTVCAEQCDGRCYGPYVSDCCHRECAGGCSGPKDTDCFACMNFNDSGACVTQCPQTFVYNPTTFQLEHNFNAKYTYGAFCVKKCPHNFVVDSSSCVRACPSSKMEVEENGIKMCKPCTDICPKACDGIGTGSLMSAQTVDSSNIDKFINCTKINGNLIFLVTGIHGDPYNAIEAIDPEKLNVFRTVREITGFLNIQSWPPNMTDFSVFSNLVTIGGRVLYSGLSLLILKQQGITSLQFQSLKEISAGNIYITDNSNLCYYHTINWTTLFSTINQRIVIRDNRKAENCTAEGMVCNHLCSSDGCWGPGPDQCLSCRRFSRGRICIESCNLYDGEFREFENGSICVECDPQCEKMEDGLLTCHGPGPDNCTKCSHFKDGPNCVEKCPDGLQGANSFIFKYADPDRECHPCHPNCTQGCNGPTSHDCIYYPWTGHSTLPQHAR

Measured: binding result

T2 sequence (P21860 20-1342): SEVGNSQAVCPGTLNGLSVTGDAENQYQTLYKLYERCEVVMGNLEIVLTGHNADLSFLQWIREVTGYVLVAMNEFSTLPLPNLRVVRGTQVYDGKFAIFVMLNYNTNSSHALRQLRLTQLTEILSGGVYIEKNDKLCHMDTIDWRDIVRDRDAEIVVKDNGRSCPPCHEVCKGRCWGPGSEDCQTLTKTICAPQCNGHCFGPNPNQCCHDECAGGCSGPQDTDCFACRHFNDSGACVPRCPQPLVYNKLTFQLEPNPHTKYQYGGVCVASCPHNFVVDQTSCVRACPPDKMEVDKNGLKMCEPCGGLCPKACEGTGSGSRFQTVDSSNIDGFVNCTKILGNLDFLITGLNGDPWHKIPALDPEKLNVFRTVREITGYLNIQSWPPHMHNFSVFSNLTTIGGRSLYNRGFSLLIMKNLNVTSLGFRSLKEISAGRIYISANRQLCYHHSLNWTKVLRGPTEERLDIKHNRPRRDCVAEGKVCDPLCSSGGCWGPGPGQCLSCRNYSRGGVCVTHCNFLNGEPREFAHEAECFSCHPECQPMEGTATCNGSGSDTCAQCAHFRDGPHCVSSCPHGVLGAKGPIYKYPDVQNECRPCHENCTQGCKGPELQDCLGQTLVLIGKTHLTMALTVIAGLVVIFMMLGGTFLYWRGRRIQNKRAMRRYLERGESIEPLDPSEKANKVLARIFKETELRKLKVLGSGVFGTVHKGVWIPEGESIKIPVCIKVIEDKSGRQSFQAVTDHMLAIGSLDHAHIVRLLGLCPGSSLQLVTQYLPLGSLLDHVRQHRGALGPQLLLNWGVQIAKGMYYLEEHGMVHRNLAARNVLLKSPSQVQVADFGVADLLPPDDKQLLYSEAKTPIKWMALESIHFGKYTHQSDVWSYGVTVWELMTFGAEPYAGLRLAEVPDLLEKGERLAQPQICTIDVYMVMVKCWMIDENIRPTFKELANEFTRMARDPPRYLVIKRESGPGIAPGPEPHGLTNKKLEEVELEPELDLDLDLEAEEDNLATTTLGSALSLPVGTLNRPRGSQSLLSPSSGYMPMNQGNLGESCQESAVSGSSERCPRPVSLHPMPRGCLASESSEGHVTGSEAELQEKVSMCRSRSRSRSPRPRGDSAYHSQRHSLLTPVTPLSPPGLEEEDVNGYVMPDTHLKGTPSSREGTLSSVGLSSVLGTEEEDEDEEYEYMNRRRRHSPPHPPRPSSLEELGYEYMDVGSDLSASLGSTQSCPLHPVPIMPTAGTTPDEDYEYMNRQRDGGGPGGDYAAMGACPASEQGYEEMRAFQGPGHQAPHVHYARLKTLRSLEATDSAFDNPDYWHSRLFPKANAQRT

B1: murine monoclonal antibody 2C4 (antibody, V domains shown)
VH: EVQLQQSGPELVKPGTSVKISCKASGFTFTDYTMDWVKQSHGKSLEWIGDVNPNSGGSIYNQRFKGKASLTVDRSSRIVYMELRSLTFEDTAVYYCARNLGPSFYFDYWGQGTTLTVSS
VL: DTVMTQSHKIMSTSVGDRVSITCKASQDVSIGVAWYQQRPGQSPKLLIYSASYRYTGVPDRFTGSGSGTDFTFTISSVQAEDLAVYYCQQYYIYPYTFGGGTKLEIK
notes: Intact murine monoclonal antibody from hybridoma; also called mu 2C4; ATCC HB-12697
no binding: EGFR | ErbB3 | ErbB4
